Data taken from the MegaScale stability set (Tsuboyama et al. 2023).

B1: EEHEE_rd4_0763 (parent)
chain: LTVHVGNVTYHFDNPEQAEEWAKRMAKKYQGQIHVKDGQFRIE

Variants of: B1
Assay: folding stability dG (cDNA display proteolysis); higher = more stable
Settings: PBS, room temperature

Variant	folding stability dG [kcal/mol]
LTVHVGNVTYHFDNPEQAEHWAKRMAKKYQGQIHVKDGQFRIE [E20H]	1.41
LTVHVGNVTYHFDNPEQAETWAKRMAKKYQGQIHVKDGQFRIE [E20T]	1.39
LTVHVGDVTYHFDNPEQAEEWAKRMAKKYQGQIHVKDGQFRIE [N7D]	1.41
LMVHVGNVTYHFDNPEQAEEWAKRMAKKYQGQIHVKDGQFRIE [T2M]	1.53
LTVGVGNVTYHFDNPEQAEEWAKRMAKKYQGQIHVKDGQFRIE [H4G]	0.951
LTVHVGNVTYHFDNPDQAEEWAKRMAKKYQGQIHVKDGQFRIE [E16D]	1.59
LTVHVGNVTYHFDNHEQAEEWAKRMAKKYQGQIHVKDGQFRIE [P15H]	1.7
LTVHVGNVTYHFDNIEQAEEWAKRMAKKYQGQIHVKDGQFRIE [P15I]	1.78
LTVHVGNVTYHFDNEEQAEEWAKRMAKKYQGQIHVKDGQFRIE [P15E]	1.47
LTVHVGNVTYHFDNTEQAEEWAKRMAKKYQGQIHVKDGQFRIE [P15T]	1.58
LTVHVGNVTYHFDNPEQAEEWAKRMAKSYQGQIHVKDGQFRIE [K28S]	0.897
LTVHYGNVTYHFDNPEQAEEWAKRMAKKYQGQIHVKDGQFRIE [V5Y]	1.41
LTVHKGNVTYHFDNPEQAEEWAKRMAKKYQGQIHVKDGQFRIE [V5K]	0.531
LTVHVGNVTYHFDNPEQAEEWAKRMAKKYQGQIHVKDGQFRQE [I42Q]	0.913
LTVHVGNVTYHFDNPEQPEEWAKRMAKKYQGQIHVKDGQFRIE [A18P]	-0.12
LTVHVGNVTYHFDNPEQAEEWAKRMAKKYQGQIHVKYGQFRIE [D37Y]	0.742
LTVHVGNVTYHFDNPEQAEEWAKRMAKKYQGQIHVKAGQFRIE [D37A]	0.671
LTLHVGNVTYHFDNPEQAEEWAKRMAKKYQGQIHVKDGQFRIE [V3L]	1.06
LTVHVGNVTYHFINPEQAEEWAKRMAKKYQGQIHVKDGQFRIE [D13I]	1.48
LTVHVGNNTYHFDNPEQAEEWAKRMAKKYQGQIHVKDGQFRIE [V8N]	1.41
LTVHVGNFTYHFDNPEQAEEWAKRMAKKYQGQIHVKDGQFRIE [V8F]	1.8
LTVHVGNVTYHFDNPEQAEEWAKRMAKKYQGQIHVKDGQFRIW [E43W]	1.55
LTVHVGNVTYHFDNPEQAEEWAKLMAKKYQGQIHVKDGQFRIE [R24L]	1.94
LTVHVGNVTYHDDNPEQAEEWAKRMAKKYQGQIHVKDGQFRIE [F12D]	-0.211
LTVHVGNVTYHFDNPEAAEEWAKRMAKKYQGQIHVKDGQFRIE [Q17A]	1.83
LTVHVGNVTYHFDNPEMAEEWAKRMAKKYQGQIHVKDGQFRIE [Q17M]	1.61

Variant	folding stability dG [kcal/mol]
LTVHVGNVTYHFDNPEGAEEWAKRMAKKYQGQIHVKDGQFRIE [Q17G]	1.11
LTVHVGNVTYHFDNPEHAEEWAKRMAKKYQGQIHVKDGQFRIE [Q17H]	1.54
LTVHVGNVTYHFDNPEQAEEWAKRMAKKYMGQIHVKDGQFRIE [Q30M]	1.59
LTVHVGNVTYHFDNPEQAEEWAKRMAKKYKGQIHVKDGQFRIE [Q30K]	1.92
LTVHVGNVTYHFDNPEQAEEWAKRMAKKYDGQIHVKDGQFRIE [Q30D]	1.52
LTVHVGNVTYHFDNPEQAEEWAKRMAKKYQYQIHVKDGQFRIE [G31Y]	1.37
LTVHVGNVTYHFDNPEQAEEWAKRMSKKYQGQIHVKDGQFRIE [A26S]	1.14
LTVHVGNVTYHFDNPEQAEEWAKRMPKKYQGQIHVKDGQFRIE [A26P]	0.273
LTVHVGNVTYHFDNPEQAEEWAKRMAKKYQGQIIVKDGQFRIE [H34I]	2.21
LTVHVGNVTYHFDNPEQAEEWAKRMAKKYQGQIHVKDGQSRIE [F40S]	1.03
LTVHVGNVTYHFDNPEQAEEEAKRMAKKYQGQIHVKDGQFRIE [W21E]	0.341
LTVHVGNVTYVFDNPEQAEEWAKRMAKKYQGQIHVKDGQFRIE [H11V]	1.61
LTVHVGNVTYHFDNPEQAEEWAKRLAKKYQGQIHVKDGQFRIE [M25L]	1.52
LTVHVGNVTYHFDNPEQAEEWLKRMAKKYQGQIHVKDGQFRIE [A22L]	1.36
LTVHVGNVTYHFDNPEQAEEWYKRMAKKYQGQIHVKDGQFRIE [A22Y]	1.06
LTVHVGNVTYHFDNPEQAEEWFKRMAKKYQGQIHVKDGQFRIE [A22F]	1.23
LTVHVGNVTYHFDNPEQAEEWEKRMAKKYQGQIHVKDGQFRIE [A22E]	0.234
LTVHVGNVTYHFDNPEQAEEWAKRMAKKYQGQIHVKDYQFRIE [G38Y]	0.909
LTVHVGNVTYHFDNPEQAEEWAKRMAKKYQGQIHVKDWQFRIE [G38W]	0.872
LTVHVGNVTYHFDNPEQAEEWAKRMAKKYQGQIHVKDNQFRIE [G38N]	1.36
LTVHVGNVTYHFDNPEQAEEWAKRMAKKYQGQIHVKDMQFRIE [G38M]	0.911
WTVHVGNVTYHFDNPEQAEEWAKRMAKKYQGQIHVKDGQFRIE [L1W]	3.2
HTVHVGNVTYHFDNPEQAEEWAKRMAKKYQGQIHVKDGQFRIE [L1H]	2.13
LTVHVGNVTYHFDNPEQAEEWAKRMAKKYQGQMHVKDGQFRIE [I33M]	1.21
LTVHVGNVTYHFDNPEQAEEWAKRMAKKYQGQSHVKDGQFRIE [I33S]	0.865
